In this experiment the target is T1, recombinant AAV2 virus-like particles (VLPs) of capsid proteins VP1, VP2 and VP3 (AAV2, UniProt P03135 1-735; P03135 139-735; P03135 203-735).
T1 construct: also called AAV2 VLP; antigen
The experiment in a line: indirect ELISA, plate coated with 1 ug/mL AAV2 VLP, 3-fold antibody dilutions from 1 ug/mL. On the technique in general: ELISA stands for enzyme-linked immunosorbent assay.

T1 sequence (P03135 whole entry, chain 1 of 3): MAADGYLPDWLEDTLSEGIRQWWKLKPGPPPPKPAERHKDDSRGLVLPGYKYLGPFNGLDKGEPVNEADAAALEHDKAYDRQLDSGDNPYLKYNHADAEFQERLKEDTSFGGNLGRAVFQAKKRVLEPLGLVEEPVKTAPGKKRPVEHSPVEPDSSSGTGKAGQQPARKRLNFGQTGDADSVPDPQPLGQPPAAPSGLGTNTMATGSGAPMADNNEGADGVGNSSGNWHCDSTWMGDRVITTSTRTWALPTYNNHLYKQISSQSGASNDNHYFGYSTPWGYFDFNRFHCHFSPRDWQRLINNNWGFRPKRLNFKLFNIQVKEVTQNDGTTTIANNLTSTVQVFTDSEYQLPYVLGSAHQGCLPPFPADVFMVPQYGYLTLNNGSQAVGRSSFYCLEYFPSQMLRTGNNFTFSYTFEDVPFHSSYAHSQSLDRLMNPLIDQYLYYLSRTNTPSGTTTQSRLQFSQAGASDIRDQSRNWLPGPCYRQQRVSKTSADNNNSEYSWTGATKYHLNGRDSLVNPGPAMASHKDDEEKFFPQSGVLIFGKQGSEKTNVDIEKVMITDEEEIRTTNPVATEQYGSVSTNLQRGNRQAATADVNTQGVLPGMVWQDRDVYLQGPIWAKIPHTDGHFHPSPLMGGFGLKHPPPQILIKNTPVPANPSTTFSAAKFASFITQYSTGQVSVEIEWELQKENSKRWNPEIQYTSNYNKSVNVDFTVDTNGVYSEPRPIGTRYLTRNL
T1 sequence (P03135 139-735, tags left off, chain 2 of 3): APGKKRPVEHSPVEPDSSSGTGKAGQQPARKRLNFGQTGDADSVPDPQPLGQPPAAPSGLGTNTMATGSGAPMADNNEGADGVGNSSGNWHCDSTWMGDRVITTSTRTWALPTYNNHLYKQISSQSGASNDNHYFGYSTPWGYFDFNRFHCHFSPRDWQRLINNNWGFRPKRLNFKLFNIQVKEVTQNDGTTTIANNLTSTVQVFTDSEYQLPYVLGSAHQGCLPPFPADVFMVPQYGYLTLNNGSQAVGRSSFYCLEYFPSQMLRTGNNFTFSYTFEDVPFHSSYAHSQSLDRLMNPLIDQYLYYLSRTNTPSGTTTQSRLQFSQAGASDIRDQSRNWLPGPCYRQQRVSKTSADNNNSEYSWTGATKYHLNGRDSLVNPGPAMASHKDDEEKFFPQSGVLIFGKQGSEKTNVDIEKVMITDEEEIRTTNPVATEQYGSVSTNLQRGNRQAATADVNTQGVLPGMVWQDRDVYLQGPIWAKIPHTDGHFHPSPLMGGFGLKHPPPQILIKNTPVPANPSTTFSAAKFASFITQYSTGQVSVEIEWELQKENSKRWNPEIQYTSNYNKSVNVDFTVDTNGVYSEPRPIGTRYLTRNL
T1 sequence (P03135 203-735 limits assumed, chain 3 of 3): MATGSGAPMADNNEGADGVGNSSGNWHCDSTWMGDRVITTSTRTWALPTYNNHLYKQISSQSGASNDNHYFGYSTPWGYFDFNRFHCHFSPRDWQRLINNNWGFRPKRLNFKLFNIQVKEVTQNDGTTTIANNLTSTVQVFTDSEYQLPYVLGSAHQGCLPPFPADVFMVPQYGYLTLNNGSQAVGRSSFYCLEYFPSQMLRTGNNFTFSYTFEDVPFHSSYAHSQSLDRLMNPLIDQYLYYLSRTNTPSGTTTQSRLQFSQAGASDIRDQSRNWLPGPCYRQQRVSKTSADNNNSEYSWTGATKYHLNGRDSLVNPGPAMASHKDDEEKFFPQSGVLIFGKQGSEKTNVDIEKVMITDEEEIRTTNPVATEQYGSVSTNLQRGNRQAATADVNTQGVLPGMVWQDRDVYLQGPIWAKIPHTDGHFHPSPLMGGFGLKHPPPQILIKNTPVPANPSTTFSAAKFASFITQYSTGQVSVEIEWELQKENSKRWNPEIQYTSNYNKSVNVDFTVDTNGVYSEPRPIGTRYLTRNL

B1: 33G5-3 (antibody, V domains shown)
VH: QSVEESGGRLVTPGTPLTLTCTVSGIDLSSYAMSWVRQAPGKGLEWIGTINSDNYRYFGSWAKGRFTISKTSTTVDLKITSPTTEDTATYFCARQRGTSSGNAMDLWGPGTLVTVSS
VL: DVVMTQTPASVSAALGGTVTIKCQASQSIGSYLNWYQQKPGQPPKLLIYAASTLAYGVSSRFRGSGSGTEFTLTISDLECADAATYYCQTYYISDSSSHVFGGGTEVVVK
notes: Expressed recombinantly in ExpiCHO-S cells, purified on protein A as IgG and detected with anti-rabbit IgG (Fc-specific); also called anti-AAV2 rabbit monoclonal antibody 33G5-3; Biotin-33G5-3
In general, EC50 refers to the concentration giving half of the maximal effect. Regarding B1, the EC50 is 1.62 ng/mL.

B2: 8H8-1 (antibody, V domains shown)
VH: QSLVESGGGLVQPEGSLTLTCTASGFSFSNVYYMCWVRQAPGKGPDWIACIYINADSTYYPSWATGRFTISKTSSTTVTLQMTSLTAADTATYFCARVAAYYDVYFNLWGPGTVVTVSS
VL: AVVMTQTASPVSAAVGGTVTINCQASQSISSSYLSWYQQKPGQPPKLLIYYASILTSGVPSRFKGSGDGTEYSLTISGVQCDDAATYYCLYGRYSGASIDTVFGGGTEVVVK
notes: Expressed recombinantly in ExpiCHO-S cells, purified on protein A as IgG and detected with anti-rabbit IgG (Fc-specific); also called anti-AAV2 rabbit monoclonal antibody 8H8-1; combination A
As to B2, the EC50 is 1.46 ng/mL.

B3: 19E10-3 (antibody, V domains shown)
VH: QSLEESGGDLVKPGSSLTLTCTASRFSFSGDYDMCWVRQAPGKGLEWIACIGAGDAITYYTNWARGRFTITYTSSTTMTLQLTSLTVADTAAYFCAAGADFAFKLWGPGTLVTVSS
VL: DIVMTQTPASVEAAVGGTVTIKCQASQSIMSLLAWYQQKPGQPPKLLIYEASKLASGVPSRFSGSGSGTQFTLTISDLECADAATYYCQGYVESSGRHYRFWAFGGGTEVVVK
notes: Expressed recombinantly in ExpiCHO-S cells, purified on protein A as IgG and detected with anti-rabbit IgG (Fc-specific); also called anti-AAV2 rabbit monoclonal antibody 19E10-3; combination C
B3: the EC50 came out at 3.94 ng/mL.

B4: 15G4-4 (antibody, V domains shown)
VH: QSVEESGGRLVTPGTPLTLTCTVSGFSLNSYTVNWVRQAPGKGLEWIGFISGGSGITNYATWAKGRFTISKTSTTVDLKLPSPTTEDTATYFCARGRYPGYGGDDYEDYYFNLWGQGTLVTVSS
VL: DVVMTQTQASVSAAVGGTVTIKCQASESIGSYLAWYQQKPGQPPRLLIYQASTLASGVSSRFKGSGSGTQFTLTISDLECDDAATYYCQGEFSCDGAHCNAFGGGTEVVVK
notes: Expressed recombinantly in ExpiCHO-S cells, purified on protein A as IgG and detected with anti-rabbit IgG (Fc-specific); also called anti-AAV2 rabbit monoclonal antibody 15G4-4; combination B
Regarding B4, the EC50 came out at 1.77 ng/mL.

Source of the values: patent US20260217796A1 (NANJING GENSCRIPT BIOTECH, published 2026).
